Results from patent publication US20150050309A1.

B1: urtica diotica (UDA) lectin (protein, UniProt P11218 24-112, looked up)
chain: QRCGSQGGGGTCPALWCCSIWGWCGDSEPYCGRTCENKCWSGERSDHRCGAAVGNPPCGQDRCCSVHGWCGGGNDYCSGSKCQYRCSSS
B2: galanthus nivalis lectin (protein, UniProt P30617 24-128, looked up)
chain: DNILYSGETLSTGEFLNYGSFVFIMQEDCNLVLYDVDKPIWATNTGGLSRSCFLSMQTDGNLVVYNPSNKPIWASNTGGQNGNYVCILQKDRNVVIYGTDRWATG

How the values were obtained:
Assay in all cases: cell-based or functional assay
[1] = target: HIV Env of primary isolate DU422 (HIV)
[2] = target: HIV Env of primary isolate TV-1 (HIV)
[3] = target: HIV Env of primary isolate DU123 (HIV)
[4] = target: HIV Env of primary isolate 6101 (HIV)
[5] = target: HIV Env of primary isolate SF162 (HIV)
[6] = target: HIV Env of primary isolate BG1168 (HIV)

Binder | neutralization titer of HIV primary isolate [1] | neutralization titer of HIV primary isolate [2] | neutralization titer of HIV primary isolate [3] | neutralization titer of HIV primary isolate [4] | neutralization titer of HIV primary isolate [5] | neutralization titer of HIV primary isolate [6] | neutralization titer of HIV primary isolate (lectin at 400 ug/ml) [1] | neutralization titer of HIV primary isolate (lectin at 400 ug/ml) [2] | neutralization titer of HIV primary isolate (lectin at 400 ug/ml) [3] | neutralization titer of HIV primary isolate (lectin at 400 ug/ml) [4] | neutralization titer of HIV primary isolate (lectin at 400 ug/ml) [5] | neutralization titer of HIV primary isolate (lectin at 400 ug/ml) [6]
B1 | 468 titer | 600 titer | 1580 titer | 428 titer | 467 titer | 190 titer |  |  |  |  |  | 
B2 |  |  |  |  |  |  | > 43700 titer | > 43700 titer | > 43700 titer | 724 titer | 22400 titer | < 20 titer
